This is an account of results in US20090081724A1 (BIONOMICS, published 2009).

For the assay, the target named is AD-CaM (Calmodulin, encoded by the CALM2 gene, fused to the activation domain) (human, UniProt P0DP24 1-149). The assay can be described thus: yeast two-hybrid, HIS3 and LacZ reporters.

B1: DB-Q2C R353G mutant (other, not shown: small tags and cut ends)
chain: KVQEQHRQKHFEKRRNPAAGLIQSAWRFYATNLSGTDLHSTWQYYERTVTVPMYSSQTQTYGASRLIPPLNQLELLRNLKSKSGLAFRKDPPPEPSPSQKVSLKDRVFSSPRGVAAKGKGSPQAQTVRRSPSADQSLEDSPSKVPKSWSFGDRSRARQAFRIKGAASRQNSEEASLPGEDIVDDKSCPCEFVTEDLTPGLKVSIRAVCVMRFLVSKRKFKESLRPYDVMDVIEQYSAGHLDMLSRIKSLQSRVDQIVGRGPAITDKDRTKGPAEAELPEDPSMMGRLGKVEKQVLSMEKKLDFLVNIYMQRMGIPPTETEAYFGAKEPEPAPPYHSPEDSREHVDRHGCIVKIVRSSSSTGQKNFSAPPAAPPVQCPPSTSWQPQSHPRQGHGTSPVGDHGSLVRIPPPPAHERSLSAYGGGNRASMEFLRQEDTPGCRPPEGTLRDSDTSISIPSVDHEELERSFSGFSISQSKENLDALNSCYAAVAPCAKVRPYIAEGESDTDSDLCTPCGPPPRSATGEGPFGDVGWAGPRK
notes: Only the intracellular C-terminal region stood in the bait, made with the same primers as the wt construct; also called R353G KCNQ2 mutant
Take B1: the binding result was “no binding”.
